Data taken from patent US20250313626A1 (HARBOUR BIOMED SHANGHAI, published 2025).
Where a chain is given by its changes, count along the chain named.

Tests used:
[1] = target: T1, human CD200R1 isoform a on CHOK1 cells (CHOK1/hCD200R1a) (human, UniProt Q8TD46 25-348); experiment: flow cytometry, CHOK1/hCD200R1a cells (FITC-Mean); table beside the curves
T1 construct: also called CHOK1/CD200R1a
T1 sequence: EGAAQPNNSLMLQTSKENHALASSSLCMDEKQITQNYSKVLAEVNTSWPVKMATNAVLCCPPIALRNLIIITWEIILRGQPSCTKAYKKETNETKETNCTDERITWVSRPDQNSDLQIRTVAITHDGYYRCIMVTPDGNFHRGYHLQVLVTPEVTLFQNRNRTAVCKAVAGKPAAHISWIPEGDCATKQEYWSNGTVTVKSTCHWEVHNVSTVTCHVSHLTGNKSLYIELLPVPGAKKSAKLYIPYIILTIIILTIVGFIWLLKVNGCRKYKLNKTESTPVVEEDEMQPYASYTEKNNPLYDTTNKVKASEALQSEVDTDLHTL
Procedure: This example is intended to investigate the in vitro binding activity of human anti-CD200R1 monoclonal antibodies to human/Cynomolgus macaques CD200R1a expressed on the surface of cells. The anti-CD200R1 antibodies were produced as described in Example 3.4 and the binding experiments at the cell level were performed using CHOK1/hCD200R1a and CHOK1-cynoCD200R1a.
Briefly, CHOK1/hCD200R1a cells and CHOK1-cynoCD200R1a cells were digested, and collected, and then were resuspended in PBS containing 2% BSA, respectively. The cell density was adjusted to 1×10⁶ cells/mL. The cells were seeded in a 96-well V-bottom plate (Corning, #3894) at 100 μL/well, followed by the addition of test antibodies and reference antibodies in a series diluted concentration, each at 100 μL/well. The cells were incubated away from light at 4° C. for 1 h. Thereafter, the cells in each well were rinsed twice with 100 μL of pre-cooled PBS containing 2% BSA, and centrifuged at 500 g at 4° C. for 5 min, and then the supernatant was discarded. 100 μL of fluorescent secondary antibody (Alexa Fluor 488-conjugated AffiniPure Goat Anti-Human IgG, Fcγ Fragment Specific, Jackson, #109-545-098, diluted in a 1:1000 ratio) was added in each well, and the plate was incubated away from light at 4° C. for 1 h. The cells in each well were rinsed twice with 100 μL of pre-cooled PBS containing 2% BSA, and centrifuged at 500 g at 4° C. for 5 min, and then the supernatant was discarded. Finally, the cells in each well were resuspended in 200 μL of pre-cooled PBS containing 2% BSA, and the fluorescence signal values were read using a BD CantoII flow cytometer.

[2] = target: T1, human CD200R1 isoform a on CHOK1 cells …; experiment: flow cytometry blocking assay: biotin-labelled human CD200 binding to CHOK1/hCD200R1a cells; y axis Inhibition %
Procedure: (§1) In brief, CHOK1/hCD200R1a cells were digested and resuspended in 2% BSA in PBS. […] The cells were placed at 4° C. and incubated for 1 hour in the dark. […] 100 μL/well of pre-cooled PBS containing 2% BSA was added to rinse the cells twice, centrifugation was performed at 500 g, 4° C. for 5 minutes, and the supernatant was discarded. Fluorescent secondary antibody (PE Streptavidin, BD, Cat #: 554061, 1:200) was added at 100 μL/well, and incubation was performed at 4° C. for 30 minutes in the dark. The cells were washed twice with 200 μL/well of pre-cooled PBS, and were centrifuged at 500 g, 4° C. for 5 minutes, and the supernatant was discarded. Finally, 200 μL/well of pre-cooled PBS was used to resuspend the cells, and the fluorescence signal values were read using ACEA Novocyte 3000 flow cytometer. IC50 values were calculated.

[3] = target: T1, human CD200R1 isoform a on CHOK1 cells …; experiment: flow cytometry, CHOK1/hCD200R1a cells (FITC-Mean); table beside the curves, head without unit, x axis Log [Ab] (nM)
[4] = target: T1, human CD200R1 isoform a on CHOK1 cells …; experiment: flow cytometry blocking assay: antibody titrated against biotin-labelled human CD200 binding to CHOK1/hCD200R1a cells; head prints EC50 without unit, x axis Log [Ab] (nM), y axis Inhibition %
Procedure: as §1

[5] = target: T2, human CD200R1a protein (soluble recombinant) (human, UniProt Q8TD46 29-265); experiment: BLI in-tandem competition on His-captured human CD200R1a; row = 1st Ab (400 nM); competitor (2nd Ab) PR007223
T2 construct: Soluble protein used in BLI; also called human CD200R1 isoform a; not shown: His tag implied by capture on anti-Penta-HIS biosensors
T2 sequence: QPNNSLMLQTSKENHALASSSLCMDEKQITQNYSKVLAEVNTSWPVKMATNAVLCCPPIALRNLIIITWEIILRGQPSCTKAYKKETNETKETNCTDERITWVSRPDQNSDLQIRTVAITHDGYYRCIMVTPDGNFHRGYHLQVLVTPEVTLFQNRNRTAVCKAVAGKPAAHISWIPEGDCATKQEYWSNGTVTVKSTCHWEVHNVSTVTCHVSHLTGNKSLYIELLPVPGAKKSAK
Procedure: (§2) To determine if the anti-CD200R1 antibodies bind to human CD200R1a on different or approximate binding epitopes, epitope competition experiments for the anti-CD200R1 antibodies were performed by the ForteBlio Octet® RED96e platform. […] The in-tandem competition assay format was applied, and it contained two association steps. Firstly, the antigen-loaded biosensors bound to each antibody (i.e., First antibody, 1st Ab) at a saturating concentration of 400 nM for 300 seconds to reach equilibrium and then secondly bound to the competing antibodies (i.e., Second antibody, 2nd Ab) of 400 nM for 300 seconds. The second binding signals are recorded as the 100% signal of each antibody when the first antibodies are replaced by kinetic buffer. All the binding data were analyzed using ForteBlio Data Analysis 11.0 software. The inhibition rate was calculated by the following formula: […]

[6] = target: T2, human CD200R1a protein (soluble …); experiment: BLI in-tandem competition on His-captured human CD200R1a; row = 1st Ab (400 nM); competitor (2nd Ab) PR006207
Procedure: as §2

[7] = target: T3, CD200R1a on PathHunter Jurkat CD200R1a signaling cells (Eurofins DiscoverX, 93-1136C19) (human, UniProt Q8TD46 25-348); experiment: cell-based or functional assay
T3 sequence: T1 sequence

B1: PR002906 (antibody, V domains shown)
VH: QVQLQESGPGLVKPSETLSLTCTVSGYTITSGYDWSWIRQPPGKGLEWIGYINYGGSTNYKPSLGSRVTISVDTSKNQFSLKLSSVTAADTAVYYCARYNEYKSYIYDWYFDFWGQGTLVTVSS
VL: DIQMTQSPSSLSASVGDRVTITCKASKNIRSYLAWYQQKPGKAPKLLIYSGSTLHSGVPSRFSGSGSGTDFTLTISSLQPEDFATYYCQQHHEYPLTFGQGTKVEIKR
notes: also called recombinant IgG1 antibody of huDX182
MFI(Max) [1]: 11100
Blocking(Max) [2]: 96.6%
EC50 [3]: 0.292 nM
EC50 [4]: 0.479 nM

B2: PR007973 (antibody, human IgG1, kappa, V domains shown)
VH: QVQLVESGGGVVQPGRSLRLSCAASGFTFSSYGFHWVRQAPGKGLEWLGIIWSDASNKYYADSVKGRFTISRDNSKNTLYLQMNSLRAEDTAVYYCARDRIVGEGFDYWGQGTLVTVSS
VL: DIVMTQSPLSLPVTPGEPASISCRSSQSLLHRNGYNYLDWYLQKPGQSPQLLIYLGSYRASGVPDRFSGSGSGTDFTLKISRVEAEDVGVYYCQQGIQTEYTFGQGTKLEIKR
notes: PTM variant of PR006839 (human IgG1)
Inhibition ratio (%) [5]: 91.7%
Blocking(Max) [2]: 100%
Inhibition ratio (%) [6]: -44.7%

B3: PR006480 (antibody, human IgG1, kappa, L234A L235A)
heavy: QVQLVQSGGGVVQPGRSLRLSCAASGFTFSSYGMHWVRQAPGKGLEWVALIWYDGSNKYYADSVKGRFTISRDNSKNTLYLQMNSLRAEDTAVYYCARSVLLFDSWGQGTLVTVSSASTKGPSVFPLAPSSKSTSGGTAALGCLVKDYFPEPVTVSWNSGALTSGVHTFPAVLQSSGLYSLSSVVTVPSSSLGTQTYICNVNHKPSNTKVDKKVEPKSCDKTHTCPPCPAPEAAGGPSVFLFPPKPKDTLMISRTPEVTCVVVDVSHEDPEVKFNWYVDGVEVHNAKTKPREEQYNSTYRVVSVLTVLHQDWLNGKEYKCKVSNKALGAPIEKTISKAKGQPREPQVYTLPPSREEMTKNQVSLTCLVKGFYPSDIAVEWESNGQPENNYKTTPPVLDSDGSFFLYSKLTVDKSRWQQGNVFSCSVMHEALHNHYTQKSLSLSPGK
light: DIQMTQSPPSLSASVGDRVTITCRASQSISSYLNWFQQKAGKAPKLLISATSNLQSGVPSRFSGSGSGTDFTLTISSLQPEDLATYYCQQSYSSPYTFGQGTKVEIKRTVAAPSVFIFPPSDEQLKSGTASVVCLLNNFYPREAKVQWKVDNALQSGNSQESVTEQDSKDSTYSLSSTLTLSKADYEKHKVYACEVTHQGLSSPVTKSFNRGEC
notes: also called PR6480
MFI(Max) [1]: 8890
EC50 [3]: 0.124 nM
IC50 of the inhibition of CD200-induced PathHunter Jurkat CD200R1a luminescence (CHOK1/hCD200 cells as CD200 source) [7]: 0.654 nM
EC50 [4]: 0.164 nM

B4: PR007223 (antibody, human IgG1, kappa)
heavy: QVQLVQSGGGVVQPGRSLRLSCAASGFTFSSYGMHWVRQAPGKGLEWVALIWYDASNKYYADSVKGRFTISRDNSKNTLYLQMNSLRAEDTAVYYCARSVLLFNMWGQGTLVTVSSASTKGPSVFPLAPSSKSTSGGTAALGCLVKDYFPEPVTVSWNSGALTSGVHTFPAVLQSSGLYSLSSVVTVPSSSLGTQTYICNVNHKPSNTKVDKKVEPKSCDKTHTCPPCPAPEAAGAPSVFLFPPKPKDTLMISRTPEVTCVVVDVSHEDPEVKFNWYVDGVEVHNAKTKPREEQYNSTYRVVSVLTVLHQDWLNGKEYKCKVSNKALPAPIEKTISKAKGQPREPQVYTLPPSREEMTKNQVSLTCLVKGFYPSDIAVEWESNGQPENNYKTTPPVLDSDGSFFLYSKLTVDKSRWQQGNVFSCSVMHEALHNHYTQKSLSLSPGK
light: B3 light with M4L, S91T
notes: PTM variant of PR006895 (human IgG1)
MFI(Max) [1]: 9890
Inhibition ratio (%) [5]: 91.8%
EC50 [3]: 0.133 nM
Inhibition ratio (%) [6]: -50.2%
IC50 of the inhibition of CD200-induced PathHunter Jurkat CD200R1a luminescence (CHOK1/hCD200 cells as CD200 source) [7]: 0.578 nM
EC50 [4]: 0.122 nM

B5: PR007221 (antibody, human IgG1, kappa)
heavy: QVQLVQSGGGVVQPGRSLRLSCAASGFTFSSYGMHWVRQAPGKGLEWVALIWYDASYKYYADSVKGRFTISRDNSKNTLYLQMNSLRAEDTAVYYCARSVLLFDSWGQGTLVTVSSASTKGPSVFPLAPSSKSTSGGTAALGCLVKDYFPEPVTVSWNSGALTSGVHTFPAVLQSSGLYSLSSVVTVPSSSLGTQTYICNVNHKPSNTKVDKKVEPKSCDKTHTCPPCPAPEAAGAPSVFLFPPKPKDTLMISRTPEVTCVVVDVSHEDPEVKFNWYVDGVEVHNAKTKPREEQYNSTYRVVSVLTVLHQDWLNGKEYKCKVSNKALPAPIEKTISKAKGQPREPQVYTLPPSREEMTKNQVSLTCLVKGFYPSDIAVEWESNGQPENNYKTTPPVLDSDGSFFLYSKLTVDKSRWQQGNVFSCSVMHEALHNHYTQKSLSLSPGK
light: B3 light with M4L, S91T, Y92L
notes: as for B4
MFI(Max) [1]: 11100
Inhibition ratio (%) [5]: 89%
EC50 [3]: 0.172 nM
Inhibition ratio (%) [6]: -40.7%
EC50 [4]: 0.194 nM
